Reference: US20130018176A1, “METHODS OF PRODUCING HYBRIDOMAS AND MONOCLONAL ANTIBODIES AND ANTIBODIES PRODUCED THEREBY” (AMGEN INC., priority 2007, published 2013)
Where two headings read alike, the source gives them in different places.

Columns and labels:
[1] = Biological activity of hepcidin variants; settings: chemically synthesized hepcidin variants
Text: A number of hepcidin variants were chemically synthesized according to the general procedure described in Example 4. A variant of hepcidin lacking the five amino acids at the N-terminus, designated “hepcidin 20” or “hepc20,” was synthesized. A linear hepcidin variant in which all eight cysteine residues were replaced with 2-aminobutyric acid, thus completely abolishing the ability to form disulfide bonds, was also synthesized. A C1-C8, C3-C6 hepcidin variant, in which cysteines 2, 4, 5 and 7 were substituted with 2-aminobutyric acid to allow formation of only two disulfide bonds (C1-C8 and C3-C6), was also synthesized.
Similar results were produced using hepcidin containing its native cysteine residues, when the molecule was in a fully-reduced state (i.e., no disulfide connectivity). This reduced material was not stable, however, and regained biological activity over time.

[2] = target: T1, mature human hepcidin (SEQ ID NO: 9) (Homo sapiens, UniProt P81172); assay: Epitope specificity: antibody binding to immobilized hepcidin surface after pre-complex with hepcidin variants (BIAcore); settings: interpretation of Table 6
T1 construct: made in house; host or cells: recombinant
T1 sequence (P81172 60-84): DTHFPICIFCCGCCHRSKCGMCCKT
Experimental: (§1) The epitope specificity of anti-human hepcidin antibodies was evaluated by assessing ability of the antibodies to bind to mature human hepcidin (SEQ ID NO: 9) after pre-complex formation with different hepcidin variants.
(§2) Recombinant hepcidin was immobilized on a CM5 chip according to manufacturer's instructions at a flow rate 10 μL/min of running buffer (DPBS: Dulbecco's Phosphate Buffer Saline1X, GIBCO 14190, with 0.005% BIAcore surfactant P-20). The carboxylated matrix of the sensor chip was first activated with a 100 μL injection of 1:1 mixture of EDC (75 mg/mL N-ethyl-N-(dimethylamine-propyl)carbodiimide in water, from Biacore) and NHS (11.5 mg/mL N-hydroxysuccinimide in water, from Biacore). 180 μL of rhHepc (˜20 μg/ml in 10 mM Na-acetate pH4.0) was injected to immobilize onto the sensor chip at 30 μL/min. The excess reactive groups of the sensor chip were deactivated with an injection of 100 μL of ethanolamine (1.0M, from Biacore).
(§3) Forms of hepcidin used for the pre-complex were: correctly folded hepcidin as a positive control, the C1-C8, C3-C6 hepcidin variant (see Example 9), hepcidin 20 (N-terminally truncated, see Example 9) and linear hepcidin (Example 9). 1 nM solutions of antibody (2.41, 2.7, 43, and R9) were preincubated with 10 nM of each antigen at room temperature for several hours before run through the immobilized hepcidin surface. The binding signal obtained was proportional to the concentration of free antibody in solution at equilibrium.
(§4) Some antibodies require the five amino acids at the N-terminus of the molecule (e.g. Ab43 and to a lesser extent, R9).

[3] = test system: mature human hepcidin (SEQ ID NO: 9); assay: as above; settings: interpretation of Table 6
Experimental: as §1, §2, §3, §4

[4] = target: T2, synthetic human hepcidin (Homo sapiens, UniProt P81172); assay: Iron-responsive beta-lactamase assay in 293/Fpn/BLA cells; type: cell-based; settings: 50 ng/mL synthetic human hepcidin, 2.5 ug/mL ferric citrate, read-out: EC50, decreased intracellular concentration of iron
T2 construct: made in house; host or cells: chemical synthesis (Fmoc solid phase), oxidatively folded
T2 sequence (P81172 60-84 limits assumed): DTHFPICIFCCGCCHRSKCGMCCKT
Experimental: The effect of anti-human hepcidin antibodies on this hepcidin-mediated iron sequestration was evaluated in vitro. […] These 293/Fpn/BLA cells, taken from a 70-80% confluent culture, were plated at 2.8×10^5 cells/mL in DMEM (Invitrogen Cat#11965) 5% FBS (Invitrogen Cat#10099-141) PSQ (Invitrogen Cat#10378-016), 90 uL/well (25,000 cells/well) in BioCoat Poly-D Lysine coated plates (Becton-Dickinson Cat#35-6640) and incubated at 37C with 5% CO2. At the end of the same day, a solution of assay medium (DMEM 5% FBS PSQ) with 100 ug/mL doxycycline was made, 10 uL/well of it added to the plate, and the plate incubated overnight or for at least 20 hours. […] Mixtures were added at 100 uL/well and incubated overnight at 37C, 5% CO2 in a cell culture incubator. Plates were then removed from the incubator and equilibrated to room temperature for 10 minutes before adding 20 uL/well of the prepared Invitrogen GeneBlazer CCF4 A/M development reagent (Invitrogen Kit# K1085) and incubating for 90 minutes in the dark. Development reagent was also added to 16 wells of a control assay plate without cells containing 100 uL assay medium (DMEM 5% FBS PSQ) and incubated for the same time. Blue & Green fluorescence signals were then read on an Envision Multilabel Reader (Perkin-Elmer Inc.) by exciting at 409 nm and reading emissions at 447 nm (blue) and 520 nm (green).

[5] = target: T3, human hepcidin (Homo sapiens, UniProt P81172); assay: Neutralization of injected human hepcidin in mice (hypoferremic response); type: in vivo; settings: female C57BL/6 mice; for protection from the hypoferremic response (serum iron): serum iron two hours later
T3 construct: The pro-region of the protein was enzymatically cleaved by incubation with Kex protease; made in house; host or cells: E. coli
T3 sequence (P81172 60-84 limits assumed): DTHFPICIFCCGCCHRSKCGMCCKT
Experimental: Activity of anti-human hepcidin antibodies was evaluated in vivo in mice that were administered human hepcidin in an amount sufficient to generate a hypoferremic response. On day 0, female C57BL/6 mice were injected subcutaneously with a murine monoclonal antibody (Ab2.7) directed against human hepcidin. Control mice received murine IgG1 as an isotypic control. At day 3, the mice received a single intraperitoneal injection of 25 μg E. coli-derived recombinant human Hepcidin (rhHepc). Serum iron levels were analyzed two hours later. […] Statistics represent ANOVA with a Dunnett's post-hoc test comparing all groups against the saline control.

[6] = target: T4, human hepcidin (Homo sapiens, UniProt P81172); assay: Antibody neutralization of AAV-delivered human hepcidin in mice; type: in vivo; settings: 1 mg/mouse
Experimental: AAV-mediated human hepcidin expression in mice produces a microcytic, hypochromic anemia consistent with iron deprivation. The activity of anti-human hepcidin antibodies was evaluated in vivo in these mice overexpressing human hepcidin. Male C57B1/6 mice were injected with AAV (1.5×10^12 particles/mouse, I.V.) containing expression cassettes for either human hepcidin or beta-galactosidase (β-gal) as a negative control. The mice were left for two weeks to allow constitutive production of huHepc before being treated with 1 mg/mouse of Ab 2.7 or isotype control (muIgG1) at various dosing frequencies (1×, 2× and 4× per week) as shown in FIG. 12A. Blood was drawn on the fifth day for serum iron levels and determination of early red blood cell (reticulocyte) characteristics (reticulocyte count, reticulocyte hemoglobin content (CHr), and reticulocyte mean cell volume (Retic. MCV))
Statistical comparisons to β-gal injected animals with isotype control treatment were determined to look for restoration of normal red cell characteristics (ANOVA with Dunnett's post-hoc test).

[7] = target: T4, human hepcidin; assay: Combination of anti-hepcidin antibody and darbepoetin alfa in viral hepcidin over-expression model; type: in vivo; settings: AAV-human hepcidin mice
Experimental: Male C57BL/6 mice were injected with AAV (5×10^12 particles/mouse, I.V.) containing genes coding for either human hepcidin or GFP as an expression control (n=5 per group). After allowing two weeks to establish constitutive protein expression, mice were bled to determine baseline hemoglobin (Hb) levels, then treated with Ab 2.7 (1 mg/mouse) or isotype control at various dose frequencies. On the day after the first dose, they were treated with darbepoietin alfa ([…], subcutaneous). A schematic of the dosing schedule appears in FIG. 15A.
Neutralization of hepcidin restores responsiveness to darbepoetin alfa. […] (See FIG. 15D.) Antibody dose and proximity of antibody dose to darbepoietin alfa treatment affected overall Hb response to anti-hepcidin antibody treatment, as shown in FIG. 15E (results varying from the control where p<0.01 by ANOVA with Dunnett's post-hoc test are noted with double asterisks).

[8] = target: T4, human hepcidin; settings: in vivo
[9] = target: T5, E. coli-derived human hepcidin (Homo sapiens, UniProt P81172); assay: Biacore concurrent binding to hepcidin captured on antibody 1S1 surface (sandwich pairing); settings: 20 nM hepcidin on 1S1 surface, then 50 nM antibody
T5 construct: The pro-region of the protein was enzymatically cleaved by incubation with Kex protease; made in house; host or cells: E. coli
T5 sequence (P81172 60-84 limits assumed): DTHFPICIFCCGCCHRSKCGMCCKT
Experimental: Using Biacore analysis, a surface coated with antibody 1S1 was tested for the concurrent binding of hepcidin and another antibody (FIG. 28). Immobilization of anti-Hepc antibody 1S1 to the sensor chip surface was performed according to manufacturer's instructions using a continuous flow of 0.005% P-20/PBS buffer. Briefly, carboxyl groups on the sensor chip surfaces were activated by injecting 60 μL of a mixture containing 0.2 M N-ethyl-N′-(dimethylaminopropyl)carbodiimide (EDC) and 0.05 M N-hydroxysuccinimide (NHS). This was followed by injecting 1S1 diluted in 10 mM acetate, pH 4.0 at concentrations between 20 μg/mL. Excess reactive groups on the surfaces were deactivated by injecting 60 μL of 1 M ethanolamine. Final immobilized levels were 5,000-6,000 resonance units (RU) for the Ab 1S1 surface. A blank, mock-coupled reference surface was also prepared on the sensor chip. 20 nM E. coli-derived human hepcidin was injected over and bound to the 1S1 antibody surface. Then 50 nM antibody 2.7, 23F11, 26F11, and 1S1 were injected over the hepcidin/1S1 surface. After the antibody injection, the surfaces were regenerated by injecting 30 μL 10 mM HCl pH 2.0.

hepc20: variant of hepcidin lacking the five amino acids at the N-terminus (SEQ ID NO: 96) (ICIFCCGCCHRSKCGMCCKT)
biological activity [1]: severely diminished biological activity

B1: Antibody 2.7: murine human hepcidin-specific monoclonal antibody raised against KLH-conjugated hepcidin; CDRs SEQ ID NOs: 28-33 (antibody, V domains shown)
VH: QIQLVQSGPELKKPGETVKISCKASGYTFTTYGMSWVKQAPGKGLKWMGWINTYSGVPTYADDFKGRFAFSLETSASTAYLQINNLKNEDTATYFCGRDHYYGEVAYWGQGTLVTVSA
VL: DIVLTQSPASLAVSLGQRATISCRASESVDSYGNSFMHWYQQKPGQPPKLLIYRASNLESGIPARFSGSGSRTDFTLTINPVEADDVATYYCHQSNEEYTFGGGTKLEIK
Binding to Solution Epitopes, Folded Hepcidin [2]: ++++ (0% antibody binding to the hepcidin surface and therefore 100% inhibition by hepcidin in solution)
Binding to Solution Epitopes, C1-C8 C3-C6 [3]: ++++ (0% antibody binding to the hepcidin surface and therefore 100% inhibition by hepcidin in solution)
Binding to Solution Epitopes, Linear Hepcidin [3]: − (100% antibody binding to the hepcidin surface and therefore no inhibition by hepcidin in solution)
EC50 [4]: 17 nM
hypoferremia (serum iron) ([5]; 0.25 mg antibody s.c. day 0, 25 μg rhHepc i.p. day 3): reduction in hypoferremia
protection from the hypoferremic response (serum iron) ([5]; 0.5 mg antibody s.c. day 0, 25 μg rhHepc i.p. day 3): statistically significant protection from the hypoferremic response
protection from the hypoferremic response (serum iron) ([5]; 1 mg antibody s.c. day 0, 25 μg rhHepc i.p. day 3): statistically significant protection from the hypoferremic response
neutralization of hypoferremic response ([5]; lower doses (0.25 and 0.1 mg) of antibody): non-neutralizing doses
Serum iron levels ([6]; AAV-human hepcidin male C57B1/6 mice, 4× per week): restored to normal
reticulocyte mean cell volume (Retic. MCV) ([6]; AAV-human hepcidin mice, 1× dose): microcytosis is still present
reticulocyte hemoglobin content (CHr) ([6]; AAV-human hepcidin mice, 1× dosing): hypochromicity is still seen
reticulocyte mean cell volume (Retic. MCV) ([6]; AAV-human hepcidin mice, 2× dose): restores normal volume
reticulocyte hemoglobin content (CHr) ([6]; AAV-human hepcidin mice, 2× dosing): normal
reticulocyte mean cell volume (Retic. MCV) ([6]; AAV-human hepcidin mice, 4× dose): restores normal volume
reticulocyte hemoglobin content (CHr) ([6]; AAV-human hepcidin mice, 4× dosing): normal
reticulocyte production (reticulocyte count) ([6]; AAV-human hepcidin mice, all dosing frequencies (1×, 2×, 4× per week)): increased reticulocyte production
response to darbepoietin alfa (increase in Hb levels) ([7]; antibody 1 mg/mouse Monday-Wednesday-Friday dosing plus darbepoietin alfa): partial response
response to darbepoietin alfa (Hb levels) ([7]; antibody 1 mg/mouse daily (Monday through Friday) plus darbepoietin alfa): maximal response
Hb levels ([7]; antibody Monday-Wednesday-Friday dosing without darbepoietin alfa): no rise in Hb levels
response to darbepoietin alfa (Hb levels) ([7]; two and three doses of antibody plus darbepoietin alfa): partial response
response to darbepoietin alfa (Hb levels) [8]: did not respond
responsiveness to darbepoietin alfa (hemoglobin levels) [8]: restored responsiveness
ability to bind hepcidin concurrently with 1S1 (sandwich pair) [9]: not able to form a sandwich pair with 1S1
